From patent US20200216522A1 (DENALI THERAPEUTICS, published 2020)
Read-outs that look alike come from different tables or passages of the source.

Columns and labels:
[1] = target: T1, full-length human Tau (Tau441; 2N4R), recombinant (human, UniProt P10636 1-758); test: SPR Biacore
T1 construct: made in E. coli, His6-Smt3 tag removed; biotinylated through amines for Octet and phage work; also called r-Tau; recombinant Tau

[2] = target: T1, full-length human Tau (Tau441; 2N4R), …; test: SPR Biacore; remark: listed apart in the source
Protocol: IgG was purified with protein A affinity chromatography. The affinity of each hulC7 IgG variant for r-Tau was determined by surface plasmon resonance using a Biacore™ T200 instrument. Biacore™ Series S CM5 sensor chips were immobilized with monoclonal mouse anti-human IgG (Fc) antibody (Human antibody capture kit from GE Healthcare). Serial 3-fold dilutions of each hulC7 variant were injected at a flow rate of […]. Each sample was analyzed with 3-minute association and 10-minute dissociation. After each injection, the chip was regenerated using 3 M MgCl₂. Binding response was corrected by subtracting the RU from a flow cell capturing an irrelevant IgG at similar density. A 1:1 Languir model of simultaneous fitting of kₒₙ and koff was used for kinetics analysis.
A further round of affinity maturation was performed by mutating certain amino acids in selected CDR-H1, CDR-L1, and CDR-L3 sequences from Table 9A, as well as the sequence of CDR-H2 (SEQ ID NO:23) of hulC7.v2. Sequence changes were identified in each CDR (Table 9B). Binding affinities were evaluated using Biacore™ (Table 10B).

T1 sequence (P10636 other isoform, or with tags, fused parts or gaps limits assumed): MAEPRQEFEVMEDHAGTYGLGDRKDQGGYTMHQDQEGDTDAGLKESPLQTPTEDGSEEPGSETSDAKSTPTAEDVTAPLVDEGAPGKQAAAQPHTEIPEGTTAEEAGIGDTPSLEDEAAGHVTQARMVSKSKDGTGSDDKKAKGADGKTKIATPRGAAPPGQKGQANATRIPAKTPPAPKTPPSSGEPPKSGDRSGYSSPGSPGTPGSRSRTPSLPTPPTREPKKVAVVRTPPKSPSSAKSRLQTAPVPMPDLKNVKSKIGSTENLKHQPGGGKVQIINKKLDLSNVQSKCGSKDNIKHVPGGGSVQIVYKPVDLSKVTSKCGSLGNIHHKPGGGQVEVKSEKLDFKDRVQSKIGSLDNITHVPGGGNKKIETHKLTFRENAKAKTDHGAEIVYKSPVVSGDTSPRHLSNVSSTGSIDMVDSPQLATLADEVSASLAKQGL

Binder	Kd [1]	koff [1]	kon [1]	Kd [2]	koff [2]	kon [2]
Clone with L3_5 (antibody, V domains shown, based on hu1C7.v2) VH: EVQLLESGGGLVQPGGSLRLSCAASGFTFSSYGMSWVRQAPGKGLEWVASISGDGGSYIHYADSVKGRFTISRDNSKNTLYLQMNSLRAEDTAVYYCARLPYWGQGTLVTVSS VL: not shown				0.928 nM	0.000787 s⁻¹	848000 M⁻¹ s⁻¹
Clone with L1_3-1 (antibody, V domains shown, based on hu1C7.v2) VH: EVQLLESGGGLVQPGGSLRLSCAASGFTFSSYGMSWVRQAPGKGLEWVASISGDGGSYIHYADSVKGRFTISRDNSKNTLYLQMNSLRAEDTAVYYCARLPYWGQGTLVTVSS VL: DIVMTQSPDSLAVSLGERATINCKSSQSLVRSGTQKDYLVWYQQKPGQPPKLLIYWASTRESGVPDRFSGSGSGTDFTLTISSLQAEDVAVYYCQQYNSYPLTFGQGTKVEIK				0.211 nM	0.000213 s⁻¹	1.01e+06 M⁻¹ s⁻¹
Clone with L1_3-10 (antibody, V domains shown, based on hu1C7.v2) VH: EVQLLESGGGLVQPGGSLRLSCAASGFTFSSYGMSWVRQAPGKGLEWVASISGDGGSYIHYADSVKGRFTISRDNSKNTLYLQMNSLRAEDTAVYYCARLPYWGQGTLVTVSS VL: DIVMTQSPDSLAVSLGERATINCKSSQSLHRSGTQKNYLVWYQQKPGQPPKLLIYWASTRESGVPDRFSGSGSGTDFTLTISSLQAEDVAVYYCQQYNSYPLTFGQGTKVEIK				0.157 nM	0.000147 s⁻¹	937000 M⁻¹ s⁻¹
Clone with L1_7 (antibody, V domains shown, based on hu1C7.v2) VH: EVQLLESGGGLVQPGGSLRLSCAASGFTFSSYGMSWVRQAPGKGLEWVASISGDGGSYIHYADSVKGRFTISRDNSKNTLYLQMNSLRAEDTAVYYCARLPYWGQGTLVTVSS VL: DIVMTQSPDSLAVSLGERATINCKSSQSLLNAGNQKNYLTWYQQKPGQPPKLLIYWASTRESGVPDRFSGSGSGTDFTLTISSLQAEDVAVYYCQQYNSYPLTFGQGTKVEIKR				0.651 nM	0.000719 s⁻¹	1.1e+06 M⁻¹ s⁻¹
Clone with L1_3-7 (antibody, V domains shown, based on hu1C7.v2) VH: EVQLLESGGGLVQPGGSLRLSCAASGFTFSSYGMSWVRQAPGKGLEWVASISGDGGSYIHYADSVKGRFTISRDNSKNTLYLQMNSLRAEDTAVYYCARLPYWGQGTLVTVSS VL: DIVMTQSPDSLAVSLGERATINCKSSQSLHKSGTQKDYLVWYQQKPGQPPKLLIYWASTRESGVPDRFSGSGSGTDFTLTISSLQAEDVAVYYCQQYNSYPLTFGQGTKVEIK				0.275 nM	0.000308 s⁻¹	1.12e+06 M⁻¹ s⁻¹
Clone with L3_6 (antibody, V domains shown, based on hu1C7.v2) VH: EVQLLESGGGLVQPGGSLRLSCAASGFTFSSYGMSWVRQAPGKGLEWVASISGDGGSYIHYADSVKGRFTISRDNSKNTLYLQMNSLRAEDTAVYYCARLPYWGQGTLVTVSS VL: DIVMTQSPDSLAVSLGERATINCKSSQSLLNSGNQKNYLTWYQQKPGQPPKLLIYWASTRESGVPDRFSGSGSGTDFTLTISSLQAEDVAVYYCQQYSSYPLTFGQGTKVEIKR				0.69 nM	0.00057 s⁻¹	826000 M⁻¹ s⁻¹
Clone with L1_3-6 (antibody, V domains shown, based on hu1C7.v2) VH: EVQLLESGGGLVQPGGSLRLSCAASGFTFSSYGMSWVRQAPGKGLEWVASISGDGGSYIHYADSVKGRFTISRDNSKNTLYLQMNSLRAEDTAVYYCARLPYWGQGTLVTVSS VL: DIVMTQSPDSLAVSLGERATINCKSSQSLHQSGTQKDYLVWYQQKPGQPPKLLIYWASTRESGVPDRFSGSGSGTDFTLTISSLQAEDVAVYYCQQYNSYPLTFGQGTKVEIK				0.349 nM	0.000379 s⁻¹	1.09e+06 M⁻¹ s⁻¹
Clone with L1_3-9 (antibody, V domains shown, based on hu1C7.v2) VH: EVQLLESGGGLVQPGGSLRLSCAASGFTFSSYGMSWVRQAPGKGLEWVASISGDGGSYIHYADSVKGRFTISRDNSKNTLYLQMNSLRAEDTAVYYCARLPYWGQGTLVTVSS VL: DIVMTQSPDSLAVSLGERATINCKSSQSLHRSGNQKDYLVWYQQKPGQPPKLLIYWASTRESGVPDRFSGSGSGTDFTLTISSLQAEDVAVYYCQQYNSYPLTFGQGTKVEIK				0.136 nM	0.000154 s⁻¹	1.13e+06 M⁻¹ s⁻¹
Clone with L1_3-2 (antibody, V domains shown, based on hu1C7.v2) VH: EVQLLESGGGLVQPGGSLRLSCAASGFTFSSYGMSWVRQAPGKGLEWVASISGDGGSYIHYADSVKGRFTISRDNSKNTLYLQMNSLRAEDTAVYYCARLPYWGQGTLVTVSS VL: DIVMTQSPDSLAVSLGERATINCKSSQSLLRSGTQKDYLVWYQQKPGQPPKLLIYWASTRESGVPDRFSGSGSGTDFTLTISSLQAEDVAVYYCQQYNSYPLTFGQGTKVEIK				0.13 nM	0.000143 s⁻¹	1.1e+06 M⁻¹ s⁻¹

Next, values leading:

Kd [1]	koff [1]	kon [1]	Kd [2]	koff [2]	kon [2]	Binder
0.122 nM	0.000252 s⁻¹	2.07e+06 M⁻¹ s⁻¹				Clone with H1_1 (antibody, V domains shown) VH: EVQLLESGGGLVQPGGSLRLSCAASGFKFSRVGVSWVRQAPGKGLEWVASISGDGGSYIHYADSVKGRFTISRDNSKNTLYLQMNSLRAEDTAVYYCARLPYWGQGTLVTVSS VL: DIVMTQSPDSLAVSLGERATINCKSSQSLLNSGNQKNYLTWYQQKPGQPPKLLIYWASTRESGVPDRFSGSGSGTDFTLTISSLQAEDVAVYYCQQYNSYPLTFGQGTKVEIKR
			0.51 nM	0.000391 s⁻¹	767000 M⁻¹ s⁻¹	Clone with L1_3-8 (antibody, V domains shown, based on hu1C7.v2) VH: EVQLLESGGGLVQPGGSLRLSCAASGFTFSSYGMSWVRQAPGKGLEWVASISGDGGSYIHYADSVKGRFTISRDNSKNTLYLQMNSLRAEDTAVYYCARLPYWGQGTLVTVSS VL: DIVMTQSPDSLAVSLGERATINCKSSQSLHLSGTQKDYLVWYQQKPGQPPKLLIYWASTRESGVPDRFSGSGSGTDFTLTISSLQAEDVAVYYCQQYNSYPLTFGQGTKVEIK
			0.078 nM	0.000214 s⁻¹	2.72e+06 M⁻¹ s⁻¹	Clone with L1_3-3 (antibody, V domains shown, based on hu1C7.v2) VH: EVQLLESGGGLVQPGGSLRLSCAASGFTFSSYGMSWVRQAPGKGLEWVASISGDGGSYIHYADSVKGRFTISRDNSKNTLYLQMNSLRAEDTAVYYCARLPYWGQGTLVTVSS VL: DIVMTQSPDSLAVSLGERATINCKSSQSLHYSGTQKDYLVWYQQKPGQPPKLLIYWASTRESGVPDRFSGSGSGTDFTLTISSLQAEDVAVYYCQQYNSYPLTFGQGTKVEIK
			0.119 nM	0.000116 s⁻¹	982000 M⁻¹ s⁻¹	Clone with L1_3, L3, and H1_HCv2 (antibody, V domains shown) VH: EVQLLESGGGLVQPGGSLRLSCAASGFTFSQVGMSWVRQAPGKGLEWVASISGDGGSYIHYADSVKGRFTISRDNSKNTLYLQMNSLRAEDTAVYYCARLPYWGQGTLVTVSS VL: DIVMTQSPDSLAVSLGERATINCKSSQSLHRSGTQKDYLVWYQQKPGQPPKLLIYWASTRESGVPDRFSGSGSGTDFTLTISSLQAEDVAVYYCQQYNSYPLTFGQGTKVEIK
			0.419 nM	0.000442 s⁻¹	1.05e+06 M⁻¹ s⁻¹	Clone with L1_3-5 (antibody, V domains shown, based on hu1C7.v2) VH: EVQLLESGGGLVQPGGSLRLSCAASGFTFSSYGMSWVRQAPGKGLEWVASISGDGGSYIHYADSVKGRFTISRDNSKNTLYLQMNSLRAEDTAVYYCARLPYWGQGTLVTVSS VL: DIVMTQSPDSLAVSLGERATINCKSSQSLHMSGTQKDYLVWYQQKPGQPPKLLIYWASTRESGVPDRFSGSGSGTDFTLTISSLQAEDVAVYYCQQYNSYPLTFGQGTKVEIK
			1.19 nM	0.000817 s⁻¹	685000 M⁻¹ s⁻¹	Clone with L3_7 (antibody, V domains shown, based on hu1C7.v2) VH: EVQLLESGGGLVQPGGSLRLSCAASGFTFSSYGMSWVRQAPGKGLEWVASISGDGGSYIHYADSVKGRFTISRDNSKNTLYLQMNSLRAEDTAVYYCARLPYWGQGTLVTVSS VL: DIVMTQSPDSLAVSLGERATINCKSSQSLLNSGNQKNYLTWYQQKPGQPPKLLIYWASTRESGVPDRFSGSGSGTDFTLTISSLQAEDVAVYYCQQYNAYPLTFGQGTKVEIKR
			0.231 nM	0.000223 s⁻¹	965000 M⁻¹ s⁻¹	Clone with L1_3-11 (antibody, V domains shown, based on hu1C7.v2) VH: EVQLLESGGGLVQPGGSLRLSCAASGFTFSSYGMSWVRQAPGKGLEWVASISGDGGSYIHYADSVKGRFTISRDNSKNTLYLQMNSLRAEDTAVYYCARLPYWGQGTLVTVSS VL: DIVMTQSPDSLAVSLGERATINCKSSQSLHRSGTQKDYLAWYQQKPGQPPKLLIYWASTRESGVPDRFSGSGSGTDFTLTISSLQAEDVAVYYCQQYNSYPLTFGQGTKVEIK
			0.206 nM	0.00031 s⁻¹	1.5e+06 M⁻¹ s⁻¹	Clone with L1_3-4 (antibody, V domains shown, based on hu1C7.v2) VH: EVQLLESGGGLVQPGGSLRLSCAASGFTFSSYGMSWVRQAPGKGLEWVASISGDGGSYIHYADSVKGRFTISRDNSKNTLYLQMNSLRAEDTAVYYCARLPYWGQGTLVTVSS VL: DIVMTQSPDSLAVSLGERATINCKSSQSLHNSGTQKDYLVWYQQKPGQPPKLLIYWASTRESGVPDRFSGSGSGTDFTLTISSLQAEDVAVYYCQQYNSYPLTFGQGTKVEIK
0.242 nM	0.000478 s⁻¹	1.97e+06 M⁻¹ s⁻¹				Clone with H3_1 (antibody, V domains shown) VH: EVQLLESGGGLVQPGGSLRLSCAASGFTFSSYGMSWVRQAPGKGLEWVASISGDGGSYIHYADSVKGRFTISRDNSKNTLYLQMNSLRAEDTAVYYCAKLPFWGQGTLVTVSS VL: DIVMTQSPDSLAVSLGERATINCKSSQSLLNSGNQKNYLTWYQQKPGQPPKLLIYWASTRESGVPDRFSGSGSGTDFTLTISSLQAEDVAVYYCQQYNSYPLTFGQGTKVEIKR
0.183 nM	0.000244 s⁻¹	1.34e+06 M⁻¹ s⁻¹				Clone with H1_5 (antibody, V domains shown) VH: EVQLLESGGGLVQPGGSLRLSCAASVIKWRIYGMSWVRQAPGKGLEWVASISGDGGSYIHYADSVKGRFTISRDNSKNTLYLQMNSLRAEDTAVYYCARLPYWGQGTLVTVSS VL: DIVMTQSPDSLAVSLGERATINCKSSQSLLNSGNQKNYLTWYQQKPGQPPKLLIYWASTRESGVPDRFSGSGSGTDFTLTISSLQAEDVAVYYCQQYNSYPLTFGQGTKVEIKR
